{"source": "paper PMC12781872", "about": "“Differential association of primary and alternative σ factors with RNA polymerase of Mycobacterium tuberculosis during transcription elongation” (Nucleic Acids Research, 2026)", "biological_target": "T1, Mycobacterium tuberculosis RNA polymerase core (α2ββ'ω), wildtype (Mycobacterium tuberculosis, UniProt P9WGZ1;P9WGY9;P9WGY7;P9WGY5)", "T1 construct": "also called Mtb RNAP core; unlabelled RNAP core; copies: 2 + + +", "T1 sequence (P9WGZ1 whole entry, chain 1 of 4)": "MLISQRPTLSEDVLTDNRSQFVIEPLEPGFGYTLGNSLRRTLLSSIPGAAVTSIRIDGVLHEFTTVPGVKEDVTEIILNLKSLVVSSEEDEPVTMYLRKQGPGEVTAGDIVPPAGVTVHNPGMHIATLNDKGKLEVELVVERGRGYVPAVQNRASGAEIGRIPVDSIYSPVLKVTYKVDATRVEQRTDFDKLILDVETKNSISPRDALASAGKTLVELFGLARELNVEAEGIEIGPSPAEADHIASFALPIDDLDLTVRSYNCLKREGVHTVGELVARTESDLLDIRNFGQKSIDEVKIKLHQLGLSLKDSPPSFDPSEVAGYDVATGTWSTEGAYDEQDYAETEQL", "T1 sequence (P9WGY9 whole entry, chain 2 of 4)": "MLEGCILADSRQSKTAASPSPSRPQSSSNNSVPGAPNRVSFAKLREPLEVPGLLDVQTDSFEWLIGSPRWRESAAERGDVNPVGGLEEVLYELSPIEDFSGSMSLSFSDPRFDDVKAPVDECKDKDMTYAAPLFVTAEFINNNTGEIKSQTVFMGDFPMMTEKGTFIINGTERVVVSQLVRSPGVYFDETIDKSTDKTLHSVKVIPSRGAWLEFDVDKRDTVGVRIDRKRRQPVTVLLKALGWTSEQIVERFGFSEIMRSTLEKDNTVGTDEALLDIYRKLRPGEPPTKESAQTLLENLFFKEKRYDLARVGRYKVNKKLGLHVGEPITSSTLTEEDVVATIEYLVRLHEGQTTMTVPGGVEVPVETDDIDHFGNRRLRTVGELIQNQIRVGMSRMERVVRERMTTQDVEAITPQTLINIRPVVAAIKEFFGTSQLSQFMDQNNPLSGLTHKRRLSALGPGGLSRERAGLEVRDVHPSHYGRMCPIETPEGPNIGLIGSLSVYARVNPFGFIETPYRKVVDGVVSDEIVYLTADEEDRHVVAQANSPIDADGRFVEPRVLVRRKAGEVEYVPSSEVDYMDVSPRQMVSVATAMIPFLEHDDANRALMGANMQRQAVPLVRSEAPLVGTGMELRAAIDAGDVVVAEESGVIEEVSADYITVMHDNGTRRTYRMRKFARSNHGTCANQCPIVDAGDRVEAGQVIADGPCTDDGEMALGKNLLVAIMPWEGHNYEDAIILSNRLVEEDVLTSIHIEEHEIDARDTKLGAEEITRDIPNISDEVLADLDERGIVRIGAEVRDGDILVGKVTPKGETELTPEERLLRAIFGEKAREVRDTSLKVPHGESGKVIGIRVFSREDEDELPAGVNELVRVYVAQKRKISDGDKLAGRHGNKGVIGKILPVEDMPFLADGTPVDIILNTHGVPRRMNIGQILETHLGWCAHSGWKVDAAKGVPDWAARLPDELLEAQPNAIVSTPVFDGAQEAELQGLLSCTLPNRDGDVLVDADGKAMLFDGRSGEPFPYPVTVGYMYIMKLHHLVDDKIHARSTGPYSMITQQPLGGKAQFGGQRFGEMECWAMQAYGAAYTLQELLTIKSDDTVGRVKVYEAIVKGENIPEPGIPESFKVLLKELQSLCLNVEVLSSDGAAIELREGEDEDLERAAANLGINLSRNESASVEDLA", "T1 sequence (P9WGY7 whole entry, chain 3 of 4)": "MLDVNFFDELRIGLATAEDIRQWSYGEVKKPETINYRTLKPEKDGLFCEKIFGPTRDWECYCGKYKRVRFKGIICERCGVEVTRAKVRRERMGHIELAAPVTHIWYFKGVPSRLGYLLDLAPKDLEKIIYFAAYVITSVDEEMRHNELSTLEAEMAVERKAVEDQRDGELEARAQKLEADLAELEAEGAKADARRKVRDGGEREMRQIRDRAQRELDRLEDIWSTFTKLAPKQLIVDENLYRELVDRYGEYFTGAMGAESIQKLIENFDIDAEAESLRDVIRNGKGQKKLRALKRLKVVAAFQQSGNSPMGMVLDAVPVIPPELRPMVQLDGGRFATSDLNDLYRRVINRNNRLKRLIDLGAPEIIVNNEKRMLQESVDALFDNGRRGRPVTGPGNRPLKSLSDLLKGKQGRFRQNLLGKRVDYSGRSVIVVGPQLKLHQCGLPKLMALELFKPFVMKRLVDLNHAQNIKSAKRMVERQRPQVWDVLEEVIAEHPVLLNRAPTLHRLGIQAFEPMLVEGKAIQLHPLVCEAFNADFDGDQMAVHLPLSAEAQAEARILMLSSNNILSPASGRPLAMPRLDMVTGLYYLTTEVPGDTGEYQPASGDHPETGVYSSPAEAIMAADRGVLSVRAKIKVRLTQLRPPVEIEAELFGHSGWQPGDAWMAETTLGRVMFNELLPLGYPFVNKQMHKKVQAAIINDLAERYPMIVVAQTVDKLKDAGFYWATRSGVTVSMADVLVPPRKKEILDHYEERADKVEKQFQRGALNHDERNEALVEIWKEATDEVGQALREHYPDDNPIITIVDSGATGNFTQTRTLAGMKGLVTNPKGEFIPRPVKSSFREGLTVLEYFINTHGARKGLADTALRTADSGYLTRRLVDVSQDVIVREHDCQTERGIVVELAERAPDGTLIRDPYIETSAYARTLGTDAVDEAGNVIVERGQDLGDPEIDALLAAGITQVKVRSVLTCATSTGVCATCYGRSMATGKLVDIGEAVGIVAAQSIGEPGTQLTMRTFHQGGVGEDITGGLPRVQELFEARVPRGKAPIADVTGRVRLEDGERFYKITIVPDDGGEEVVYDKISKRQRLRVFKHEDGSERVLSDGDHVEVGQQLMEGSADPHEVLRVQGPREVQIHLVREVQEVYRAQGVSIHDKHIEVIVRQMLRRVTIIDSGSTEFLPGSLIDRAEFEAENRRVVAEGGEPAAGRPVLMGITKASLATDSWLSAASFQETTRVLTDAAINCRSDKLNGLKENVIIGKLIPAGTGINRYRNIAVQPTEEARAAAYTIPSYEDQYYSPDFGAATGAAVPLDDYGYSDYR", "T1 sequence (P9WGY5 whole entry, chain 4 of 4)": "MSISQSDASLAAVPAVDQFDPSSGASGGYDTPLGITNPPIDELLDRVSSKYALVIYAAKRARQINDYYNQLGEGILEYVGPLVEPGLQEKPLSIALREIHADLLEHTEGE", "assay": "native gel or EMSA", "settings": "both partners purified", "data": [{"binder": "Alexafluor-488 labelled Mtb σ^A (natural protein, also called AF488 labelled σ^A; σ^A-488) MAATKASTATDEPVKRTATKSPAASASGAKTGAKRTAAKSASGSPPAKRATKPAARSVKPASAPQDTTTSTIPKRKTRAAAKSAAAKAPSARGHATKPRAPKDAQHEAATDPEDALDSVEELDAEPDLDVEPGEDLDLDAADLNLDDLEDDVAPDADDDLDSGDDEDHEDLEAEAAVAPGQTADDDEEIAEPTEKDKASGDFVWDEDESEALRQARKDAELTASADSVRAYLKQIGKVALLNAEEEVELAKRIEAGLYATQLMTELSERGEKLPAAQRRDMMWICRDGDRAKNHLLEANLRLVVSLAKRYTGRGMAFLDLIQEGNLGLIRAVEKFDYTKGYKFSTYATWWIRQAITRAMADQARTIRIPVHMVEVINKLGRIQRELLQDLGREPTPEELAKEMDITPEKVLEIQQYAREPISLDQTIGDEGDSQLGDFIEDSEAVVAVDAVSFTLLQDQLQSVLDTLSEREAGVVRLRFGLTDGQPRTLDEIGQVYGVTRERIRQIESKTMSKLRHPSRSQVLRDYLD", "values": [{"measurement": "fractional occupancy relative to RPo, at RPitc (sinP3)", "result": "~95", "unit": "%"}, {"measurement": "fractional occupancy relative to RPo, at TEC+16 (sinP3)", "result": 77, "unit": "%"}, {"measurement": "fractional occupancy relative to RPo, at TEC+23 (sinP3)", "result": 72, "unit": "%"}, {"measurement": "fractional occupancy relative to RPo, at TEC+29 (sinP3)", "result": 63, "unit": "%"}, {"measurement": "fractional occupancy relative to RPo, at TEC+59 (sinP3)", "result": 49, "unit": "%"}]}, {"binder": "TMR-labelled Mtb σ^E used in EMSA and anisotropy assays (natural protein, also called TMR-labelled σ^E; labelled σ^E) MELLGGPRVGNTESQLCVADGDDLPTYCSANSEDLNITTITTLSPTSMSHPQQVRDDQWVEPSDQLQGTAVFDATGDKATMPSWDELVRQHADRVYRLAYRLSGNQHDAEDLTQETFIRVFRSVQNYQPGTFEGWLHRITTNLFLDMVRRRARIRMEALPEDYDRVPADEPNPEQIYHDARLGPDLQAALASLPPEFRAAVVLCDIEGLSYEEIGATLGVKLGTVRSRIHRGRQALRDYLAAHPEHGECAVHVNPVR", "values": [{"measurement": "fractional occupancy relative to RPo, at RPitc (sigB)", "result": "~93", "unit": "%"}, {"measurement": "fractional occupancy relative to RPo, at TEC+15 (sigB)", "result": 55, "unit": "%"}, {"measurement": "fractional occupancy relative to RPo, at TEC+23 (sigB)", "result": 47, "unit": "%"}, {"measurement": "fractional occupancy relative to RPo, at TEC+27 (sigB)", "result": 45, "unit": "%"}, {"measurement": "fractional occupancy relative to RPo, at TEC+84 (sigB)", "result": 38, "unit": "%"}]}, {"binder": "TMR-labelled Mtb σ^F (wild type, labelled at the natural cysteine, residue 47 of σ2) (natural protein, also called TMR-labelled σ^F; σ^F labelled with TMR at region 2) MTARAAGGSASRANEYADVPEMFRELVGLPAGSPEFQRHRDKIVQRCLPLADHIARRFEGRGEPRDDLIQVARVGLVNAAVRFDVKTGSDFVSFAVPTIMGEVRRHFRDNSWSVKVPRRLKELHLRLGTATADLSQRLGRAPSASELAAELGMDRAEVIEGLLAGSSYHTLSIDSGGGSDDDARAITDTLGDVDAGLDQIENREVLRPLLEALPERERTVLVLRFFDSMTQTQIAERVGISQMHVSRLLAKSLARLRDQLE", "values": [{"measurement": "fractional occupancy relative to RPo, at RPitc (usfXP1)", "result": "~96", "unit": "%"}, {"measurement": "fractional occupancy relative to RPo, at TEC+17 (usfXP1)", "result": 89, "unit": "%"}, {"measurement": "fractional occupancy relative to RPo, at TEC+23 (usfXP1)", "result": 87, "unit": "%"}, {"measurement": "fractional occupancy relative to RPo, at TEC+28 (usfXP1)", "result": 83, "unit": "%"}, {"measurement": "fractional occupancy relative to RPo, at TEC+64 (usfXP1)", "result": 82, "unit": "%"}]}]}
